In publication PMC8397727, “The structure of the bacterial DNA segregation ATPase filament reveals the conformational plasticity of ParA upon DNA binding” (Nature Communications, 2021):

Target: Vibrio cholerae chromosome 2 ParA (ParA2vc) (Vibrio cholerae)
Assay: negative-stain EM; ParA2vc 1 mg/ml with or without 3.5 mM nucleotide and MgCl2, 30 °C 15 min, diluted 1/100 in 100 mM NaCl, 50 mM Tris pH 7.5; no DNA; 2D classification of particles; monomers to dimer

Substance “Vibrio cholerae chromosome 2 ParA (ParA2vc)” has a stoichiometry N of 2.
